Assay: label from the status in PepcDB records
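Further: failed if final PepcDB status was selected cloned or expressed and not failed if soluble or beyond.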

MPRYPVRPADHAQSAEGGVTAVDRALTLLTAFRVTDQTLSLSELSERASLVPSTVLRLLASLMHFGFVLRRPDGRYALGPAAARLNRVYAASFNLQDVVLPALQELVGQTRESASFHVRQGAHRLVLYRVSSPQPLSDQSHTGDLLPLDRGTGGHVLMAFSDTPGEFYEALRLRGYMASPVSDRSPELAGISAPVFDAQGMLAGALTLTMPVHRYKDAHIPVLREAAARLSAALGA
protein production: failed

MDGEILRDPTRRFVLQSGAAVGGGLLLSFTMSSEGQAAGDTKVNAYVRIASDGKVTIASKVPEVGQGIKTALPMLIAEELDVDWSAVTVEQAIADTKIYGRQVAGGSMATTLEYDGLRRVGATVRALLIAAAAARWNVPADSLKTEPGFVVDAAGKRRASYGELAQAAAALTPPDPKSLTLKDPKAFRIIGKSHKSQNLDAIVTGQPTYGIDVRLPGMLFAAFAKAPVYGAKVASVDLALAKAVKGVRDAFIIEGGTNLQGLLPGVAVVADSWWAARKGREALQIQWAEHPTASQSTVGFAAKAAELAAAPPHRNLHNDGDVEAALKGAAKTVSAAYSYPFIAHAALEPQNCTAHVKDGKVEIWAPTQNPESGRALVARALNVDPSAITIHLIRGGGGFGRRLMNDYMVEAAAIAAKVNAPVQLIWTREDDMQHDFYRPGGWHNLTAGLDAKGGLTAWKNHFITFGEGETFNTAAAMNATQFPCRAVANYRHDVSVMPLGFPTGFLRAPGNNAFGFVIQSFTDELALAAGKDPVAFRRELLGEPRLLGEPGKGDSFHTGRMRGVLDLVAEMSGWGRKVPKGTGLGVACHYSHLGYVAVVMQVTVKDGAVKVDKVWAAADVGRQIVNPSGADQQMQGSILDAIGSTLYQSITFENGAATNSNFGDFPLLRMADAPPVEVRYKLSDNNPTGLGEPAYPPAPAALCNAIFAATGKRIRSLPIGDQLA
protein production: failed

MVKVSIICTNYNKGSWIGEAIDSFLKQETSFPYEIIIVDDASTDHSVHIIKTYQKQYPDLIRAFFNQENQGITKTWSDICKKARGQYIARCDGDDYWIDPFKLQKQIDLLETSPESKWSNTDFDMVDSKGNIIHKDVLKNNIIPFMDSYEKMLALKGMTMASTWLVETKLMLEINDRINKDAVDDTFNIQLELFKKTKLAFLRDSTTVYRMDAESDSRSKDSEKLAQRFDRLLETQLEYIEKYPDSDYKKVLEYLLPKHNDFEKVLAQDGKNVWDNQQITIYLAKGDDQEFSEENCFQFPLQHSGNIQLTFPENIRKIRIDLSEIPSYYRQVSLVNTTVNTELLPTWTNAKVFGYSYYFIAPDPQMIYDLTAQEGQDFKLTYEWFNVDRPSQPDFLANHLVKELDQKKVELKMLSPYKYQYQKAVAERDLYLEQLNEMVVRYNSVTHSRRWTIPTKIINLFRRKK
protein production: failed

MDTGPDQSYFSGNHWFVFSVYLLTFLVGLPLNLLALVVFVGKLRCRPVAVDVLLLNLTASDLLLLLFLPFRMVEAANGMHWPLPFILCPLSGFIFFTTIYLTALFLAAVSIERFLSVAHPLWYKTRPRLGQAGLVSVACWLLASAHCSVVYVIEFSGDISHSQGTNGTCYLEFWKDQLAILLPVRLEMAVVLFVVPLIITSYCYSRLVWILGRGGSHRRQRRVAGLVAATLLNFLVCFGPYNVSHVVGYICGESPVWRIYVTLLSTLNSCVDPFVYYFSSSGFQADFHELLRRLCGLWGQWQQESSMELKEQKGGEEQRADRPAERKTSEHSQGCGTGGQVACAEN
protein production: failed

MEKIEDQFASLHIVRRSSEPKEPTYLLGIDTSKTVQADKGGLVAVLCSNGSIRIYDKETLHLLREFGGSPGLLSGVSFANSCDSVYSASTDGTVKCWDARGASEKPVQLFKGYPSCSFISFDVNCKDHVICAGAEKVDEDALLVFWDARFTSQDLSTRDPLGAYSETHSDDITQVRFHPSNPNLVVSGSTDGLVNVFDLSADKEEDALVATCNSVSSVSCIGWCGKDYKQIYCMTHDEGFCWWDLNHLDTDEPITCLNIQDVREITDVKDGHLDYLIGGLYHEKMDRLFVIGGTNTGKIHLLSCTSAGLTHVTSLHGGHAATVRSFCWNVSEDSLLTGGEDAQLLLWKPGAMEKTFTKKDSLKIASSVQQRVRVHSSDSYKKRKQQ
protein production: failed

MENVKVSVIVPVYNVETYLEEALMSLKNQTLKEIEFLIINDGSTDNSQKIIEEIAQDDPRFRVFNVKNGGIGKAFNLGVSEAKGEYIAEFESDDYVALHAYERLYNTAKSHHADVVRCNWVEFSSEEEVERDILWQYPDKYNQLIDLKTTDLIVQVYPWNAIYKKSMIEKENVTWDEEIKSYGDTGLFWKINSASQNVIFIKDCLYFYRQDNPNSTVNNVATKVPFLFQQFKLIRSNLIEQNKFERYKGYFYKQMFEKYFWAIEKLTHLRDESVYEVIQKVAVDFRQALETDQLNDIDFEYIKQFYQIANDPAAYYEDYLKNLYKVSVVMPIHNASKYLRQTLETVCEQSLREIEIILVENGSTDNTMDIINEFAVKDPRITGISIGKSNPGHARNVGISMARGRYLQFLDADDHFEANLLQDAYYRAYDSATDILLFGMKEKLPNGEVHVVHNPLLTNGGRMSGEEISLDEVTPYLYDKLFLLEYIKENNLVNLEQFVGEDAYFTYTALLGTEKIVALNKYLLTRIVRQDGLMSTYGMNYRDEFNLHDKMLEYLKQHAPNRIEAYRLKIINTLNWFIFDMNRVDQAFKERFYQELKEKYIQQLGLDLVKKEKYSNDPEQVERITRIQNILQYNLEIYQNIYKDFGMKKTFIIPNVHIQERGGKVIFGQEKTQGNGTAIEMFSIIIADNDTSNASGVIDFVYMGDNTKIIHDSLLVSLLIKKEGTTLKSIVLQAEWEKGYTLLQENMYYTFVDNVFTIWAGYTQKYAAFDYNVRILTSREGETHFSVVRQNQGYIQDTMTSIGNELTPINKIEGNEPTTIKKAVSKSLKKAKGLLK
protein production: failed

MRPVYFLSDFGLEDPYVAVVKAVLAERAPGPAVVDLAHALPPQDLRRAAYALFEALPYLPEGAVVLAVVDPGVGTARRAVAALGRWTYVGPDNGLFTLAWLLDPPRRAFLLEPPRPRPKAALPGWAPGEATFHGRDVFAPAAAHLALGLPPEGLGPEVPVETLARLPLALTEGPEGEVLTFDRFGNAITTLLRAPVGGFVEVGGRRVPVRRTFGEVPEGAPVAYLGSAGLLEVAVNRGSAREALGLKEGMPVRLL
protein production: not failed

MNQCRLRSLARIRRSLTLGLRGTDQHVLARQALRTIQTTSQRRGVHDLDSFANGCSAAYIEGLYNKWKRNPSSVDESWNELFSSNDWSSPKRSPLQVSHSRKYRRPPVERIAVKARSGERTASGGASAAPAAPPSDWKNIDDHHVIQAIIRAYQSRGHLAADLDPLGIVGPKKRTSVDGTQRHAAREVLRQHFSYIFNDLNTVFKLPSSTMIGGDQEFLSLKEILDRLERIYCGHIGVEYMQITSLTKTNWLRDRFEKPGGLDLTKEEKKLILERLTRSTGFENFLAKKFSSEKRFGLEGCDIMIPAIKEVVDRATDHGVESILIGMAHRGRLNVLANICRKPISDILSQFHGLQATDSGSGDVKYHLGVFQERLNRQTNRMVRITVVANPSHLEHVNPVLLGKARAEMFQRGDTCGSTVMPIIIHGDASFSGQGVVYESMHLSDLPNYTTYGTIHIVSNNQVGFTTDPRFSRSSRYCTDVAKVVNAPILHVNADDPEACIQCARIAIDYRTRFKKDVVIDIVGYRRNGHNEADEPMFTQPLMYQRIKKLKPCLQLYADKLIKEGVVTDSEFKAMVSSYEKICEDAWAKSKTIKTIKYSSWIDSPWPGFFEGRDRLKLCPTGISTDTLKTIGNMFSTPPPPEHKFETHKGILRILAQRTQMVQDKVADWSLGEAFAFGSLLKEGIHVRLSGQDVERGTFSHRHHVLHHQSEDKVVYNSLDHLYPDQAPYSVSNSSLSECAVLGFEHGYSMASPNALVMWEGQFGDFCNTAQCIIDTFIASGETKWVRQSGVVMLLPHSMEGMGPEHSSGRIERFLQMSDDDPDVYPDTCDADFVARQLMNVNWIVTNLSTPANLFHCLRRQVKMGFRKPLINFSPKSLLRHPLARSPFKDFNECSCFQRIIPDKGPAGKQPDCVQKLVFCSGKVYYDLVKERDDHEQVETVALVRVEQLCPFPYDLISQQLELYPKAELLWAQEEHKNMGAWSYVQPRFDTALLKNENESRCVSYHGRPPSASPATGNKVQHYNEYKALITSIFGELTPENKKRIEDRIKKQQAKAKADAQSKPSTKPPAAPPKGGSSPPPGPAPRKPLISLPSRPPRGGKQRSGSAPAPNLVDEDSAARNREPDASAYDGASPSAWKRSGSAPAPSVVPRASASRSPSRKSPSPSHDGISPSTRQESLSKKKSGSAPAPTPTSRGPFRTAPSNTEFIKRRPAKDYGSRNETQSTPGESELDPTKPQP
protein production: failed

MDNVGCDKRISWPCHCSKSRTAPRRGSHLMARGRKRRFNPNIPGHIEQEALPKGIYWENGRWYMHEDHPDGGRQVKRTVAFRSARLSELHAIAESRLRGDVRGTLRYLFDRFHEASEFKELQHDTQKDYRRYADTLANYVRKDGSKLGGVQLEHITTPVVQRLLETFANGRPATRLQQALPPTPSKANHLYRYLRRTLAWGVRHGYCKENPAIGVLQAKEAKAFRMPTPDAFEAVLQFARERGALKPHTKGSFPSYLPPVMVLAYSARLRGIEVCSLTDAHRLEHGVHASRRKGSRDTLTTWDAHMTEAWEALLARRSEICNKPGRNFPIPMKPEERFFLIEQTGNPIVKSSLDSAWQRFIPAAIRDGVIKSEERFSLHGLKHRGVTDTEGNRGDKQDAAGHVSSSMTDRYDHELPVVKPPRRR
protein production: failed

METKCELNNTKKVANAFGLNEEDTNLLINAVDLDIKNNMQEISSELQQSEQSKQKQLGTTLQNLAKQNRIIK
protein production: failed

MNNTDCLLGRRKEINETAYANVLKKELVVYMKRKLMIFFIASVVTLLICSVAVLASGEDVHILINNNGIKFSIPPYVKDEEVFLPMREIFELYGFEVNWNGTERSAEAAKDGKIVKVKVGSNIVKLYGEDYNSKDDVFIFRDRIFISTDVIEAGLNIKVKWDKNKRTIYLNEYTNESITIVGNDNSVILGSNILVNISPRYDIDTVNKIIGENDEMLVEKNYTGAIRGYKELLKHISAKENPEEYIHVLINLGNAYVELASIVNREQNALEAILFYEEALKVDSIDKYPHKKALANRGMGSAYFILSTVRDVEKNTAKALEMFNEALNIFVKDGDQYNCGYLHYLKGRTYYWMAASTNTRDNIIKSLDSLEEALTTFNTENYKDEYIIARSCHGLVLTQFFNFSGEVEHLQRAFDAFNEVLDNITIEEKPILYASTYMQLASYYMYLANKDGDVESYYKCISCMQESLKVYTLDSDSYNYAVAYANIGKAYLLMSYLSQTNVNIDRALSAYEEALKVFKISQFPFNYASVQIDLGEAYTVKAGITGSEEDYNNAQNAFNNALKIYTLKNYPYQYAKTYSEFGKMYIALAYIKDKEENNKKAIECFNEALKVYSFEKYPVLYGYNQELIALSNIELSKIRDPKKHLNKSVEVCNNALKVFRKENIPYLYGVVNIYLGNSYTFLASIENTKENCIQAEKAYMNALEIFTKDASLTYYLEAMTGLAENYVIKSQVENRKENLEKAIAKCNDIIELLDRHRSSPYYGKAQYILLLSYLGLSDFENKEVNLNKALIANREAVSVFEEGNLVFDKSIALAAGANIYLKYSEVNNTVKNLTEAKRTVESALTYFKKENYPYQYAILMNSMGTIYQKLSEKENRIDNLKKSIEAYKEANEIFSIEEYGLYFAKTKHDMGDVYMKLAGSEDRKANIQKALECFSEAIRIYTNEDYPLIHEEIIKKMENIKK
protein production: failed

MIIDINRLDRAFDLIKEGVSKGVFPGAVAAVGTRERVIRLESFGNRCLYPEKLSMNKDTLFDLASLTKVVATNTLFMIFLEKGLISVYDNVSYYLEKFKGKNKDDVTIFNLLTHTAGFVPCKPLYKLCKGYEDSIDYICRCGLSYKPGTKCVYSDFSYILLAYILEKIGGDTLDILCDRYIFKPLYMENTTFKPKGNNIAATEIDKKTKKPLIGVCHDENGRFFGGISGHAGLFSDIYDLCKFSNMLVNEGKGIISYASFKAMTTNHTLGLEDNRGYGWCIKGDKNSFMGDIAFPETFGHNGFTGTSLWVDIKNNIYAILLTNRVHPTRDNLRIIRFRRVFSNAVLASLTRLEHHHHHH
protein production: failed
